Results published in paper PMC3824616.

Biological target: human constitutively active c-Src, adenovirus-expressed (human) (UniProt P12931)
Experiment: co-IP

B1: phospho-mimetic S116D eNOS mutant, adenovirus-expressed (enzyme)
chain: MGNLKSVGQEPGPPCGLGLGLGLGLCGKQGPASPAPEPSRAPAPATPHAPDHSPAPNSPTLTRPPEGPKFPRVKNWELGSITYDTLCAQSQQDGPCTPRCCLGSLVLPRKLQTRPDPGPPPAEQLLSQARDFINQYYSSIKRSGSQAHEERLQEVEAEVASTGTYHLRESELVFGAKQAWRNAPRCVGRIQWGKLQVFDARDCSSAQEMFTYICNHIKYATNRGNLRSAITVFPQRAPGRGDFRIWNSQLVRYAGYRQQDGSVRGDPANVEITELCIQHGWTPGNGRFDVLPLLLQAPDEAPELFVLPPELVLEVPLEHPTLEWFAALGLRWYALPAVSNMLLEIGGLEFSAAPFSGWYMSTEIGTRNLCDPHRYNILEDVAVCMDLDTRTTSSLWKDKAAVEINLAVLHSFQLAKVTIVDHHAATVSFMKHLDNEQKARGGCPADWAWIVPPISGSLTPVFHQEMVNYILSPAFRYQPDPWKGSATKGAGITRKKTFKEVANAVKISASLMGTLMAKRVKATILYASETGRAQSYAQQLGRLFRKAFDPRVLCMDEYDVVSLEHEALVLVVTSTFGNGDPPENGESFAAALMEMSGPYNSSPRPEQHKSYKIRFNSVSCSDPLVSSWRRKRKESSNTDSAGALGTLRFCVFGLGSRAYPHFCAFARAVDTRLEELGGERLLQLGQGDELCGQEEAFRGWAKAAFQASCETFCVGEEAKAAAQDIFSPKRSWKRQRYRLSTQAEGLQLLPGLIHVHRRKMFQATVLSVENLQSSKSTRATILVRLDTAGQEGLQYQPGDHIGICPPNRPGLVEALLSRVEDPPPPTESVAVEQLEKGSPGGPPPSWVRDPRLPPCTLRQALTFFLDITSPPSPRLLRLLSTLAEEPSEQQELETLSQDPRRYEEWKWFRCPTLLEVLEQFPSVALPAPLLLTQLPLLQPRYYSVSSAPNAHPGEVHLTVAVLAYRTQDGLGPLHYGVCSTWLSQLKTGDPVPCFIRGAPSFRLPPDPYVPCILVGPGTGIAPFRGFWQERLHDIESKGLQPAPMTLVFGCRCSQLDHLYRDEVQDAQERGVFGRVLTAFSREPDSPKTYVQDILRTELAAEVHRVLCLERGHMFVCGDVTMATSVLQTVQRILATEGDMELDEAGDVIGVLRDQQRYHEDIFGLTLRTQEVTSRIRTQSFSLQERHLRGAVPWAFDPPGPDTPGP
- percent reduction of co-immunoprecipitation against WT eNOS: 88%
